Experimental findings from article doi:10.1101/2025.08.19.671159 are described below.

The test deals with 14-3-3ζ of the Tni-FNL-produced BRAF complexes (human) (UniProt P63104). The test is described as follows: cryo-EM structure; BRAF:14-3-3_(2):MEK complex co-expressed in Tni-FNL insect cells and purified as a complex; 3.8 Å.

“14-3-3ζ of the Tni-FNL-produced BRAF complexes (from UniProt P63104 1-245) (natural protein)”: the stoichiometry N (in general, the number of molecules, sites or subunits per partner or assembly) is 2.
